Columns and labels:
[1] = target: Myosin11 (smooth muscle myosin heavy chain, myosin II isoform) (mouse (endogenous in retina)) (UniProt O08638)
[2] = target: Myosin11 (smooth muscle myosin heavy chain, myosin II isoform) (mouse (endogenous in retina)) (UniProt O08638); assay: FRET or BRET

UniProt O08638, sequence (O08638 whole entry, canonical isoform): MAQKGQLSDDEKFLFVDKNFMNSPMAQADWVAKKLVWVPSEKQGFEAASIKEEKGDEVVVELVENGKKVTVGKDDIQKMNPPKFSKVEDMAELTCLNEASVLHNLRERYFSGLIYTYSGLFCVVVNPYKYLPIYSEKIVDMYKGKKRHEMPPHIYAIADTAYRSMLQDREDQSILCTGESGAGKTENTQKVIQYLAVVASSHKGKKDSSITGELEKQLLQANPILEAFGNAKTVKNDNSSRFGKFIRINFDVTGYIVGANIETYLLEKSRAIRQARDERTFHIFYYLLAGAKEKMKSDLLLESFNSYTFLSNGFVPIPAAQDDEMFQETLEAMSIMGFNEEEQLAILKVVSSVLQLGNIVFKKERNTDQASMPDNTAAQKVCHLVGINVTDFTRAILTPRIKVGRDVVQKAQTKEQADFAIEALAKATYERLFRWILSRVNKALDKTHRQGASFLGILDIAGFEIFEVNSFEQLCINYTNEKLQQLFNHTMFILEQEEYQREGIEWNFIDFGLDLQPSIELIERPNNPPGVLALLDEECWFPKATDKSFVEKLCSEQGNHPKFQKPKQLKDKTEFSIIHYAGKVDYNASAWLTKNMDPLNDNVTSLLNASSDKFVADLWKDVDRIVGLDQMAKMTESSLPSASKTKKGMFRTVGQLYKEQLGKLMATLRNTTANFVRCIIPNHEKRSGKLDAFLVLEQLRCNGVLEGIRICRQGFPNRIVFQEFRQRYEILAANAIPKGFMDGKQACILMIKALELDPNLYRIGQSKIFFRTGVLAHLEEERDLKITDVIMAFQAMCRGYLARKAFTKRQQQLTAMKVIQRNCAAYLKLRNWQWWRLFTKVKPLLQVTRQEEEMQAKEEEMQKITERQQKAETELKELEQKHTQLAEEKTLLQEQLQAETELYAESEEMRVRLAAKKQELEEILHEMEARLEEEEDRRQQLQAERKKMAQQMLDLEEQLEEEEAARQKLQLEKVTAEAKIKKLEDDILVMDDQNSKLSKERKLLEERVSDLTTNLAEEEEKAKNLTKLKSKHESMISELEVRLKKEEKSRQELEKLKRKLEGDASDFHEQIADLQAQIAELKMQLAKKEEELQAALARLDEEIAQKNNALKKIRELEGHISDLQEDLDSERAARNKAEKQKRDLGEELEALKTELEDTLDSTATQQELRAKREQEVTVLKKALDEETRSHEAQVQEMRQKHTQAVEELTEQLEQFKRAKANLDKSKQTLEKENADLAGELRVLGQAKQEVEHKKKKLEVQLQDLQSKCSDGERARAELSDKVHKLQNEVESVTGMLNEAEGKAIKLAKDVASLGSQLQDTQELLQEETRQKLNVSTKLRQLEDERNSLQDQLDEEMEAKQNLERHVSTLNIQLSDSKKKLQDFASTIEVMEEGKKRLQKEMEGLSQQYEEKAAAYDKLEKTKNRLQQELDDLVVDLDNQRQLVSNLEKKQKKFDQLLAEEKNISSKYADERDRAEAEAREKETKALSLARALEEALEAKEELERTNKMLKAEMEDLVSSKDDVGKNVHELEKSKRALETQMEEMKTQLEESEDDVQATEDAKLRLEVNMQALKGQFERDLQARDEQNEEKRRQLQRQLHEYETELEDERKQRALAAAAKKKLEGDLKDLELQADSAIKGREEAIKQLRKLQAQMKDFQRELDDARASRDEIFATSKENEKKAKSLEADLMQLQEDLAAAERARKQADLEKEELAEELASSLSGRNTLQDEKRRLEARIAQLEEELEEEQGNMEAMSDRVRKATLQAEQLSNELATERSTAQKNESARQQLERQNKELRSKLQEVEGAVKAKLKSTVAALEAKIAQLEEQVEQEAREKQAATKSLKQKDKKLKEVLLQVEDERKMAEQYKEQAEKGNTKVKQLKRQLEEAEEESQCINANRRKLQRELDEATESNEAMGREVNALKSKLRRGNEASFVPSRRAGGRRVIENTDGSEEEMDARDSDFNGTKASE

- JNDR after noradrenaline, mesh pericytes (orders 3-4), blebbistatin vs. vehicle [1]: 0.81
- FRET efficiency [2]: > 0.8
Substance: α-smooth muscle actin (α-SMA) (from UniProt P62737 1-377) (natural protein)

Source: publication doi:10.64898/2025.12.01.691715
